From article PMC7484307 (Archives of biochemistry and biophysics, 2020)

Target: the molecule itself
Assay: AUC

B1: His-tagged ALDH9A1 (aldehyde dehydrogenase 9A1) (enzyme, human, UniProt P49189 1-494, looked up)
chain: MSTGTFVVSQPLNYRGGARVEPADASGTEKAFEPATGRVIATFTCSGEKEVNLAVQNAKAAFKIWSQKSGMERCRILLEAARIIREREDEIATMECINNGKSIFEARLDIDISWQCLEYYAGLAASMAGEHIQLPGGSFGYTRREPLGVCVGIGAWNYPFQIASWKSAPALACGNAMVFKPSPFTPVSALLLAEIYSEAGVPPGLFNVVQGGAATGQFLCQHPDVAKVSFTGSVPTGMKIMEMSAKGIKPVTLELGGKSPLIIFSDCDMNNAVKGALMANFLTQGQVCCNGTRVFVQKEILDKFTEEVVKQTQRIKIGDPLLEDTRMGPLINRPHLERVLGFVKVAKEQGAKVLCGGDIYVPEDPKLKDGYYMRPCVLTNCRDDMTCVKEEIFGPVMSILSFDTEAEVLERANDTTFGLAAGVFTRDIQRAHRVVAELQAGTCFINNYNVSPVELPFGGYKKSGFGRENGRVTIEYYSQLKTVCVEMGDVESAF
With B1 the “stoichiometry N” value was 4.
